# The supplement of paper PMC10567573
# B1: MYBL2 (parent)
# chain: IAKHLKGRLGKQCRERWHNHLNPE
# Variants of: B1
# Experiment: protein stability index of a GFP-peptide fusion (GPS, HEK-293T) (PSI 1-6); higher = more stable
# Conditions: c terminus: a fixed tail appended
# 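Note: lentivirally expressed fusions sorted by FACS into six bins by GFP to DsRed ratio, PSI derived from sequencing read proportions per bin multiplied by bin number.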
row,Variant,protein stability index
1,IAKHLKGRLFKQCRERWHNHLNPE,3.24
2,IAKHLKGRLNKQCRERWHNHLNPE,2.52
3,IAKHLKGRLCKQCRERWHNHLNPE,1.74
4,IAKHLKGRLLKQCRERWHNHLNPE,1.94
5,IAKHLKGRLWKQCRERWHNHLNPE,2.56
6,IAKHLKGRLSKQCRERWHNHLNPE,1.99
7,IAKHLKGRLQKQCRERWHNHLNPE,1.96
8,IAKHLKGRLDKQCRERWHNHLNPE,1.83
9,IAKHLKGRLVKQCRERWHNHLNPE,2.54
10,IAKHLKGRLHKQCRERWHNHLNPE,1.35
11,IAKHLKGRLYKQCRERWHNHLNPE,2.49
12,IAKHLKGRLKKQCRERWHNHLNPE,1.61
13,IAKHLKGRLTKQCRERWHNHLNPE,2.16
14,IAKHLKGRLPKQCRERWHNHLNPE,2.22
15,IAKHLKGRLAKQCRERWHNHLNPE,1.92
16,IAKHLKGRLEKQCRERWHNHLNPE,1.48
17,IAKHLKGRLIKQCRERWHNHLNPE,2.44
18,IAKHLKGRLRKQCRERWHNHLNPE,1.67
19,IAWHLKGRLGKQCRERWHNHLNPE,1.95
20,IALHLKGRLGKQCRERWHNHLNPE,2.34
21,IAQHLKGRLGKQCRERWHNHLNPE,2.96
22,IAPHLKGRLGKQCRERWHNHLNPE,1.93
23,IAHHLKGRLGKQCRERWHNHLNPE,2.32
24,IAYHLKGRLGKQCRERWHNHLNPE,2.17

row,Variant,protein stability index
1,IAGHLKGRLGKQCRERWHNHLNPE,1.79
2,IANHLKGRLGKQCRERWHNHLNPE,1.8
3,IAMHLKGRLGKQCRERWHNHLNPE,1.81
4,IATHLKGRLGKQCRERWHNHLNPE,1.81
5,IAFHLKGRLGKQCRERWHNHLNPE,2.46
6,IAVHLKGRLGKQCRERWHNHLNPE,2.9
7,IADHLKGRLGKQCRERWHNHLNPE,2.3
8,IAAHLKGRLGKQCRERWHNHLNPE,2.84
9,IAEHLKGRLGKQCRERWHNHLNPE,2
10,IASHLKGRLGKQCRERWHNHLNPE,1.44
11,IACHLKGRLGKQCRERWHNHLNPE,2.25
12,IAIHLKGRLGKQCRERWHNHLNPE,1.51
13,IARHLKGRLGKQCRERWHNHLNPE,2.03
14,IAKHQKGRLGKQCRERWHNHLNPE,1.87
15,IAKHGKGRLGKQCRERWHNHLNPE,2.04
16,IAKHHKGRLGKQCRERWHNHLNPE,2.51
17,IAKHIKGRLGKQCRERWHNHLNPE,1.75
18,IAKHMKGRLGKQCRERWHNHLNPE,1.72
19,IAKHPKGRLGKQCRERWHNHLNPE,2.07
20,IAKHVKGRLGKQCRERWHNHLNPE,2.18
21,IAKHSKGRLGKQCRERWHNHLNPE,2.29
22,IAKHKKGRLGKQCRERWHNHLNPE,2.49
23,IAKHCKGRLGKQCRERWHNHLNPE,1.9
24,IAKHNKGRLGKQCRERWHNHLNPE,2.38

row,Variant,protein stability index
1,IAKHEKGRLGKQCRERWHNHLNPE,2.49
2,IAKHDKGRLGKQCRERWHNHLNPE,2.7
3,IAKHRKGRLGKQCRERWHNHLNPE,2.7
4,IAKHTKGRLGKQCRERWHNHLNPE,2.35
5,IAKHYKGRLGKQCRERWHNHLNPE,1.86
6,IAKHWKGRLGKQCRERWHNHLNPE,1.84
7,IAKHAKGRLGKQCRERWHNHLNPE,2.18
8,IAKHFKGRLGKQCRERWHNHLNPE,1.67
9,IAKWLKGRLGKQCRERWHNHLNPE,1.76
10,IAKDLKGRLGKQCRERWHNHLNPE,2.74
11,IAKCLKGRLGKQCRERWHNHLNPE,3.5
12,IAKYLKGRLGKQCRERWHNHLNPE,4.85
13,IAKLLKGRLGKQCRERWHNHLNPE,2.33
14,IAKSLKGRLGKQCRERWHNHLNPE,1.73
15,IAKMLKGRLGKQCRERWHNHLNPE,1.83
16,IAKGLKGRLGKQCRERWHNHLNPE,2.2
17,IAKVLKGRLGKQCRERWHNHLNPE,3.2
18,IAKRLKGRLGKQCRERWHNHLNPE,2.17
19,IAKQLKGRLGKQCRERWHNHLNPE,2.27
20,IAKKLKGRLGKQCRERWHNHLNPE,2.12
21,IAKTLKGRLGKQCRERWHNHLNPE,1.87
22,IAKNLKGRLGKQCRERWHNHLNPE,1.57
23,IAKELKGRLGKQCRERWHNHLNPE,2.04
24,IAKPLKGRLGKQCRERWHNHLNPE,2.15

row,Variant,protein stability index
1,IAKALKGRLGKQCRERWHNHLNPE,2.33
2,IAKFLKGRLGKQCRERWHNHLNPE,2.52
3,IAKHLKGRKGKQCRERWHNHLNPE,2.5
4,IAKHLKGRQGKQCRERWHNHLNPE,2.06
5,IAKHLKGRFGKQCRERWHNHLNPE,1.7
6,IAKHLKGRHGKQCRERWHNHLNPE,2
7,IAKHLKGRAGKQCRERWHNHLNPE,1.76
8,IAKHLKGRIGKQCRERWHNHLNPE,1.43
9,IAKHLKGRNGKQCRERWHNHLNPE,2.31
10,IAKHLKGRMGKQCRERWHNHLNPE,2.45
11,IAKHLKGRTGKQCRERWHNHLNPE,1.99
12,IAKHLKGRSGKQCRERWHNHLNPE,2.55
13,IAKHLKGRWGKQCRERWHNHLNPE,1.67
14,IAKHLKGRDGKQCRERWHNHLNPE,3.01
15,IAKHLKGRPGKQCRERWHNHLNPE,2.28
16,IAKHLKGREGKQCRERWHNHLNPE,2.73
17,IAKHLKGRVGKQCRERWHNHLNPE,2.18
18,IAKHLKGRRGKQCRERWHNHLNPE,2.72
19,IAKHLKGRCGKQCRERWHNHLNPE,2.08
20,IAKHLKGRYGKQCRERWHNHLNPE,2.24
21,IAKHLKGRGGKQCRERWHNHLNPE,2.45
22,IAKHLKGRLGKECRERWHNHLNPE,1.92
23,IAKHLKGRLGKACRERWHNHLNPE,1.29
24,IAKHLKGRLGKRCRERWHNHLNPE,2.44

row,Variant,protein stability index
1,IAKHLKGRLGKHCRERWHNHLNPE,2.38
2,IAKHLKGRLGKPCRERWHNHLNPE,1.54
3,IAKHLKGRLGKFCRERWHNHLNPE,2.08
4,IAKHLKGRLGKGCRERWHNHLNPE,3.02
5,IAKHLKGRLGKMCRERWHNHLNPE,1.92
6,IAKHLKGRLGKCCRERWHNHLNPE,2.53
7,IAKHLKGRLGKNCRERWHNHLNPE,1.38
8,IAKHLKGRLGKSCRERWHNHLNPE,2.77
9,IAKHLKGRLGKKCRERWHNHLNPE,1.51
10,IAKHLKGRLGKLCRERWHNHLNPE,2.32
11,IAKHLKGRLGKICRERWHNHLNPE,2.97
12,IAKHLKGRLGKDCRERWHNHLNPE,1.93
13,IAKHLRGRLGKQCRERWHNHLNPE,1.67
14,IAKHLYGRLGKQCRERWHNHLNPE,1.77
15,IAKHLPGRLGKQCRERWHNHLNPE,2.03
16,IAKHLNGRLGKQCRERWHNHLNPE,2.21
17,IAKHLAGRLGKQCRERWHNHLNPE,1.7
18,IAKHLMGRLGKQCRERWHNHLNPE,1.97
19,IAKHLCGRLGKQCRERWHNHLNPE,2.59
20,IAKHLDGRLGKQCRERWHNHLNPE,2.46
21,IAKHLSGRLGKQCRERWHNHLNPE,1.81
22,IAKHLGGRLGKQCRERWHNHLNPE,1.67
23,IAKHLHGRLGKQCRERWHNHLNPE,1.91
24,IAKHLQGRLGKQCRERWHNHLNPE,1.56

row,Variant,protein stability index
1,IAKHLWGRLGKQCRERWHNHLNPE,1.27
2,IAKHLTGRLGKQCRERWHNHLNPE,2.21
3,IAKHLFGRLGKQCRERWHNHLNPE,2.94
4,IAKHLEGRLGKQCRERWHNHLNPE,1.55
5,IAKHLVGRLGKQCRERWHNHLNPE,2.45
6,IAKHLLGRLGKQCRERWHNHLNPE,4.25
7,IAKHLKARLGKQCRERWHNHLNPE,2.94
8,IAKHLKKRLGKQCRERWHNHLNPE,1.77
9,IAKHLKNRLGKQCRERWHNHLNPE,1.82
10,IAKHLKCRLGKQCRERWHNHLNPE,1.6
11,IAKHLKERLGKQCRERWHNHLNPE,1.88
12,IAKHLKLRLGKQCRERWHNHLNPE,2.71
13,IAKHLKIRLGKQCRERWHNHLNPE,2.31
14,IAKHLKPRLGKQCRERWHNHLNPE,2.14
15,IAKHLKWRLGKQCRERWHNHLNPE,2.74
16,IAKHLKRRLGKQCRERWHNHLNPE,2.2
17,IAKHLKMRLGKQCRERWHNHLNPE,1.77
18,IAKHLKYRLGKQCRERWHNHLNPE,2.14
19,IAKHLKDRLGKQCRERWHNHLNPE,2.61
20,IAKHLKQRLGKQCRERWHNHLNPE,1.65
21,IAKHLKVRLGKQCRERWHNHLNPE,2.45
22,IAKHLKFRLGKQCRERWHNHLNPE,2.25
23,IAKHLKSRLGKQCRERWHNHLNPE,2.39
24,IAKHLKTRLGKQCRERWHNHLNPE,2.25

row,Variant,protein stability index
1,IAKHLKHRLGKQCRERWHNHLNPE,3.17
2,IAKHLKGWLGKQCRERWHNHLNPE,2.73
3,IAKHLKGHLGKQCRERWHNHLNPE,1.91
4,IAKHLKGNLGKQCRERWHNHLNPE,1.61
5,IAKHLKGILGKQCRERWHNHLNPE,1.53
6,IAKHLKGELGKQCRERWHNHLNPE,2.14
7,IAKHLKGMLGKQCRERWHNHLNPE,1.74
8,IAKHLKGTLGKQCRERWHNHLNPE,1.63
9,IAKHLKGYLGKQCRERWHNHLNPE,1.9
10,IAKHLKGDLGKQCRERWHNHLNPE,2.41
11,IAKHLKGQLGKQCRERWHNHLNPE,1.76
12,IAKHLKGCLGKQCRERWHNHLNPE,2.23
13,IAKHLKGKLGKQCRERWHNHLNPE,2.11
14,IAKHLKGPLGKQCRERWHNHLNPE,2.65
15,IAKHLKGALGKQCRERWHNHLNPE,1.97
16,IAKHLKGSLGKQCRERWHNHLNPE,1.8
17,IAKHLKGVLGKQCRERWHNHLNPE,1.6
18,IAKHLKGGLGKQCRERWHNHLNPE,1.81
19,IAKHLKGRLGVQCRERWHNHLNPE,2.12
20,IAKHLKGRLGLQCRERWHNHLNPE,2.36
21,IAKHLKGRLGIQCRERWHNHLNPE,1.97
22,IAKHLKGRLGCQCRERWHNHLNPE,2.09
23,IAKHLKGRLGHQCRERWHNHLNPE,2.41
24,IAKHLKGRLGQQCRERWHNHLNPE,1.79

row,Variant,protein stability index
1,IAKHLKGRLGGQCRERWHNHLNPE,3.92
2,IAKHLKGRLGFQCRERWHNHLNPE,1.4
3,IAKHLKGRLGDQCRERWHNHLNPE,2.47
4,IAKHLKGRLGSQCRERWHNHLNPE,2.43
5,IAKHLKGRLGEQCRERWHNHLNPE,2.46
6,IAKHLKGRLGTQCRERWHNHLNPE,1.67
7,IAKHLKGRLGMQCRERWHNHLNPE,2.69
8,IAKHLKGRLGPQCRERWHNHLNPE,1.75
9,IAKHLKGRLGAQCRERWHNHLNPE,2.06
10,IAKHLKGRLGWQCRERWHNHLNPE,2.44
11,IAKHLKGRLGYQCRERWHNHLNPE,2.02
12,IAKHLKGRLGRQCRERWHNHLNPE,1.95
13,IAKHLKGRLGNQCRERWHNHLNPE,2.43
14,ISKHLKGRLGKQCRERWHNHLNPE,2.1
15,IRKHLKGRLGKQCRERWHNHLNPE,2.53
16,IVKHLKGRLGKQCRERWHNHLNPE,1.53
17,IYKHLKGRLGKQCRERWHNHLNPE,1.76
18,IWKHLKGRLGKQCRERWHNHLNPE,1.64
19,IQKHLKGRLGKQCRERWHNHLNPE,2.03
20,ITKHLKGRLGKQCRERWHNHLNPE,2.37
